Data set [1] addresses lactate dehydrogenase from Lactobacillus helsingborgensis (Lactobacillus helsingborgensis). Nature of the data set: SEC-MALS. A general note: In gel filtration, larger molecules generally elute earlier.
Data set [2] deals with the molecule itself. Nature of the data set: SEC-MALS.

As a reminder, the stoichiometry N is the number of molecules, sites or subunits per partner or assembly. Molecule “lactate dehydrogenase from Lactobacillus helsingborgensis (enzyme)” returned a stoichiometry N in data set [1] of 8.

B1: lactate dehydrogenase from Lactobacillus johnsonii (enzyme)
chain: MTTYYKGFPQSTREEKLHMVNLDELEHEAKYVMPEAAYYYVASGAENEWTWRNNTQAFNHFQIVPRALTGMQNPELNTEFLGMKLKTPVMICPIACHGIANAEAEIDTAKGAKAAGALFAMSTYANKSVQEVQSAVGDSPRFMQLYLSKNWDFNKMVIEESVKAGFTGFFLTVDALVSGYREANLRTNFTYPVPLAFFNEWNGGKGEGQSVAQMYASSAQNIGPDDIRKIKEIADVPVIVKGVECAEDAMLAIGTGADGIVVSNHGGREVDGAPATIDVLPEIAKAVRSCDHRVPIILDGGVRRGSHVFKALALGADLVGIGRPFLYGLALGGAQGVQSVIEQLNKELLIDMQLTGCKTIEDIKHAKIDHINYSADWGISSTSRSVMKPYPVTKENQLTGEAADAVSGASRH
Consider B1, for which the “stoichiometry N” value in data set [2] was determined as 8.

Values taken from publication PMC9670274 (ACS Omega, 2022).
